Laboratory results reported in US7247441B2, “Nucleic acid sequence and protein in addition to polypeptides coding for mannitol dehydrogenases or parts thereof and the production and use thereof in diagnosis and therapy” (Biomay Produktions- Und Handels-Aktienge Sellschaft, priority 2002, dated 2007).

How the values were obtained:
[1] = system: IgE antibodies of C. herbarum allergy sufferers; test: IgE immune blot of the native purified MtDH after 2-dimensional separation; assay type: binding; details: patients' serum 1:10, 125I-labeled anti-human IgE
Source text: (§1) Native purified MtDH was separated under denaturing conditions in an isoelectric focusing (O'Farrel P H, J. Biol. Chem., 1975; 250:4007–21) according to the net charge (isoelectric point) of the protein. Thereafter, the protein separated thus was subjected to SDS gel electrophoresis (Laemmli U K, Nature, 1970; 27:680–5), whereby a separation by molecular weight took place in addition. The protein was transferred to a PVDF membrane in a Western blot (Towbin H et al., Proc. Natl. Acad. Sci. USA, 1979; 76:4350–4). After free binding sites had been saturated (30 minutes in blocking buffer: 50 mM sodium phosphate pH 7.5, 0.5% Tween 20, 0.5% BSA, 0.05% NaN3), the membrane was incubated with patients' serum (1:10 diluted in blocking buffer). Then, the membrane was washed (with blocking buffer, 3×10 minutes) to remove unspecifically bound antibodies. Specifically bound IgE-Ab were detected with the aid of an ^125I-labeled rabbit anti-human IgE antibody. After the membrane had been exposed to an X-ray film, the results were available: […]

[2] = system: IgE antibodies of C. herbarum allergy sufferers; test: IgE immune blot of the native purified MtDH after separation in the SDS gel; assay type: binding, human
Description: The protein was purified to homogeneity in a conventional method (example 1). The yield amounted to 1 mg.
Native purified MtDH was separated by molecular weight in a reducing SDS gel (Laemmli U K, Nature, 1970; 27:680–5). Subsequently, the protein was transferred onto a PVDF membrane in a Western blot (Towbin H et al., Proc. Natl. Acad. Sci USA, 1979; 76:4350–4). After free binding sites had been saturated (30 minutes in blocking buffer: 50 mM sodium phosphate pH 7.5, 0.5% Tween 20, 0.5% BSA, 0.05% NaN3), the membrane was incubated with patients' serum (1:10 diluted in blocking buffer). Then, the membrane was washed (with blocking buffer, 3×10 minutes) to remove unspecifically bound antibodies. Specifically bound IgE-Ab were detected with the aid of an ^125I-labeled rabbit anti-human IgE antibody. After the membrane had been exposed to an X-ray film, the result was available.

[3] = system: IgE of patients' sera; test: IgE immunoblots of Cladosporium herbarum crude extract with sera from 62 patients; assay type: binding, human; details: sera from 62 patients preselected in skin test or RAST, positive to Cladosporium herbarum extract
Description: For the purposes of the present invention, IgE immunoblots of Cladosporium herbarum crude extract were assayed with sera from 62 patients. An immunoreactive protein of molecular weight 29 kD, which was recognized by 61% of the patients' sera, was identified. […] No other allergen in the Cladosporium herbarum extract reacted with such a high percentage of patients' sera. It is therefore assumed that this protein is the major allergen of Cladosporium herbarum.

[4] = Two-dimensional separation by isoelectric focusing and SDS-PAGE; assay type: physicochemical
Source text: as §1

[5] = biological target: T1, Cladosporium herbarum mannitol dehydrogenase (Cladosporium herbarum, UniProt P0C0Y5); test: Enzyme activity determination, absorption of NADPH at 340 nm; assay type: biochemical
T1 construct: the enzyme activity was determined with the traditionally purified protein; from tissue; host or cells: Cladosporium herbarum extract (ammonium sulfate precipitation, HIC, anion exchange)
Description: The experiments reveal that the highly purified major allergen of Cladosporium herbarum is indeed a mannitol dehydrogenase which catalyzes the following metabolic reaction: Fructose+NADPH+H^+ ? mannitol+NADP^+. […] The method of the activity determination is described in example 3.
To confirm the results according to the invention, the enzyme activity was determined with the traditionally purified protein. The absorption of NADPH was measured in a photometer at 340 nm.
• 50 mM Tris-HCl, pH 7.5 • 0.25 mM NADPH or NADH • D-fructose or fructose-6-phosphate (0.1; 0.2; 0.4; 0.6; 0.8; 1.0; 1.2 M) • H2O to 1 ml • the reaction is started with 0.5 μl of MtDH Results: • Reaction with fructose and NADPH • No reaction with fructose-6-phosphate and NADH

[6] = system: IgE of sera of Alternaria alternata-sensitized patients; test: IgE immune blot of recombinant Alternaria alternata mannitol dehydrogenase with the sera of 28 patients; assay type: binding, human
Source text: The following procedure was chosen for purifying the recombinantly produced protein, which is provided with a poly-His fragment at the C terminus: the E. coli cells with the expression vector, which express the foreign protein, the Alternaria alternata mannitol dehydrogenase, were first lysed in the customary manner. […] The inclusion bodies formed by overexpression of the foreign protein were first solubilized in a buffer with 6-molar urea and subsequently purified by affinity chromatography over a nickel chelate column. The recombinantly produced mannitol dehydrogenase was applied in 6 M urea buffer. Imidazole buffer was employed for the elution. The protein-comprising fractions were subsequently purified further by preparative SDS-PAGE gel electrophoresis and analyzed, during which process it emerged that the allergen was already purified to virtually complete homogeneity.
The protein prepared in accordance with example 10 was separated by gel electrophoresis and tested in an IgE immune blot with the sera of 28 patients. All of the 28 sera originated from patients who had shown a positive response to the Alternaria alternata crude extract and who had been pretested both in a skin test and in an RAST. A pronounced band was visible in the immune blot in the case of 9 of the patients' sera tested. This corresponds to approximately 32% of the Alternaria alternata-sensitized patients.

Row | Molecule | reaction with IgE antibodies of C. herbarum allergy sufferers [1] | reaction with IgE antibodies of C. herbarum allergy sufferers ([2]; SDS gel, patients' serum 1:10, 125I-labeled anti-human IgE) | result in the IgE immunoblot ([2]; pool of six patients) | patients' sera recognizing the protein [3] | isoelectric point [4] | enzyme reaction ([5]; with fructose and NADPH) | enzyme reaction ([5]; with fructose-6-phosphate and NADH) | share of Alternaria alternata-sensitized patients with a pronounced band ([6]; 28 sera) | patients' sera with a pronounced band in the immune blot ([6]; of 28 sera positive to Alternaria alternata crude extract)
1 | native purified MtDH: major allergen of Cladosporium herbarum, a NADP-dependent mannitol dehydrogenase, 29 kD, seq. ID No. 8 (protein, listed as Cladosporium herbarum) MPGQQATKHESLLDQLSLKGKVVVVTGASGPKGMGIEAARGCAEMGAAVAITYASRAQGAEENVKELEKTYGIKAKAYKCQVDSYESCEKLVKDVVADFGQIDAFIANAGATADSGILDGSVEAWNHVVQVDLNGTFHCAKAVGHHFKERGTGSLVITASMSGHIANFPQEQTSYNVAKAGCIHMARSLANEWRDFARVNSISPGYIDTGLSDFVPKETQQLWHSMIPMGRDGLAKELKGAYVYFASDASTYTTGADLLIDGGYTTR | reacts specifically | reacts specifically | highly positive | 61% | 5.8 | Reaction | No reaction |  | 
2 | protein prepared in accordance with example 10: recombinantly produced Alternaria alternata mannitol dehydrogenase, seq. ID No. 11, purified over a nickel chelate column, approximately 30 kD (protein, listed as Alternaria alternata) MPITVPQATELKDLFSLKGKVVIVTGASGPTGIGTEAARGCAEYGADLAITYNSRAEGAEKNAKEMSEKYGVKVKAYKCQVNEYAQCEKLVQDVIKDFGKVDVFIANAGKTADNGILDATVEQWNEVIQTDLTGTFNCARAVGLHFRERKTGSLVITSSMSGHIANFPQEQASYNVAKAGCIHLAKSLANEWRDFARVNSISPGYIDTGLSDFVPQDIQKLWHSMIPMGRDAKATELKGAYVYFASDASSYCTGSDLLIDGGYCVR |  |  |  |  |  |  |  | approximately 32% | 9
